According to paper PMC6057921:

Legend:
[1] = molecular target: Arp2/3 complex (untagged, yeast) (yeast (RedStar yeast cakes)) (UniProt P32381); assay: SEC; Superdex 200 Increase 10/300 GL, 4 °C; 0.7 µM Arp2/3 complex and 7 µM Abp1 incubated >1 h on ice; 10 mM HEPES pH 7.0, 50 mM KCl, 1 mM EGTA, 2 mM MgCl2, 0.5 mM DTT, 0.1 mM ATP; bands of the peak fraction quantified on stain-free gels against standards
[2] = molecular target: SNAP-tagged S. cerevisiae Arp2/3 complex (dye-labelled) (S. cerevisiae) (UniProt P32381); assay: single-molecule TIRF colocalisation; 649-biotin-SNAP-Arp2/3 complex anchored by streptavidin; 20 nM Abp1-SNAP-549 flowed in; no actin; 0.25 s intervals for 120 s
[3] = molecular target: SNAP-tagged S. cerevisiae Arp2/3 complex (dye-labelled) (S. cerevisiae) (UniProt P32381); assay: single-molecule TIRF colocalisation; 649-biotin-SNAP-Arp2/3 complex anchored by streptavidin; 20 nM Abp1-SNAP-549 with 200 nM unlabeled Abp1 (220 nM total); 0.25 s intervals for 120 s; double exponential fit
[4] = molecular target: Arp2/3 complex (untagged, yeast) (yeast (RedStar yeast cakes)) (UniProt P32381); assay: negative-stain single-particle electron microscopy; Abp1-SNAP and Arp2/3 complex at 1:1 molar ratio (100 nM each), 30 min at room temperature, uranyl formate stain; random conical tilt 3D reconstructions at 21 Å
[5] = molecular target: Abp1-SNAP (S. cerevisiae Abp1 with C-terminal SNAP-tag, dye-labelled) (S. cerevisiae) (UniProt P15891); assay: single-molecule TIRF colocalisation; Abp1-SNAP-biotin-549 anchored by streptavidin; JF646-SNAP-Arp2/3 flowed in (10 nM in the results, 15 nM in the methods); no actin; 0.25 s intervals for 60 s
[6] = molecular target: Rabbit skeletal muscle actin (filaments) (rabbit) (UniProt P68135); assay: single-molecule TIRF colocalisation; 10 nM JF646-SNAP-Arp2/3 on tethered, preformed unbranched OG-labeled actin filaments, no actin monomers, no Abp1; recorded at 0.15 s intervals; TIRF buffer pH 7.4; single exponential fit
[7] = molecular target: Rabbit skeletal muscle actin (filaments) (rabbit) (UniProt P68135); assay: single-molecule TIRF colocalisation; as a1 with 0.5 µM Abp1 present; double exponential fit

Substance: Abp1 (S. cerevisiae, untagged after GST cleavage) (from UniProt P15891 1-592) (natural protein)
- stoichiometry N (Abp1 per Arp2/3 complex) [1]: 2

Substance: Abp1-SNAP (S. cerevisiae Abp1 with C-terminal SNAP-tag, dye-labelled) (from UniProt P15891 1-592) (natural protein)
- average lifetime [2]: 0.36 s
- lifetime of long-lived interactions at 220 nM total Abp1 [3]: 36 s
- percent of particles in the Class 1 Abp1-bound reconstruction [4]: 30%

Substance: SNAP-tagged S. cerevisiae Arp2/3 complex (dye-labelled) (from UniProt P32381 1-391; P47117 1-449; P38328 1-384)
- average dwell time [5]: 0.37 s
- average lifetime on filament sides [6]: 0.37 s
- lifetime of the longer-lived binding events with 0.5 µM Abp1 [7]: 2 s
